{"source": "paper PMC10841013", "biological_target": "T1, rArgR (Streptococcus suis CZ130302) (UniProt Q3C167)", "T1 sequence": "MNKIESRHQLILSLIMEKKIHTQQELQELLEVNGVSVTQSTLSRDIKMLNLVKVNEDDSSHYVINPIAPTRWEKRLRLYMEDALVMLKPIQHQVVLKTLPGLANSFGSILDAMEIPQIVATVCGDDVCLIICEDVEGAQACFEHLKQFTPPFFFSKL", "experiment": "EMSA"}
{"sequence": "TGGATGGTTTGACATGATCTGTCCTCCTTGTAGATTTATACATGATGGGAAACGAGGAGGACCGTACGCTTTCCTGCCTCTCATTTCCTCTTTACATCCATAGTTTAACAGAGCAAAAAAACAAAAACTTGAAAACGCTCGCATTTATGTTGAGAAATTCTTCACATTTTCAACCTTATTTATAAATAATTATCGATTATATCGCCTATATTATGCATAATTCTTTCTATTATATCATTATGTGAATTTT (double strand) [arcA promoter 250 bp]", "values": [{"measurement": "binding", "result": "binds"}]}
